{
  "source": "paper PMC5916898",
  "about": "“Global profiling of protein–DNA and protein–nucleosome binding affinities using quantitative mass spectrometry”",
  "key": {"PHF10-DPF": {"target": "T1, PHF10-DPF (UniProt Q8WUB8 379-481)", "T1 sequence": "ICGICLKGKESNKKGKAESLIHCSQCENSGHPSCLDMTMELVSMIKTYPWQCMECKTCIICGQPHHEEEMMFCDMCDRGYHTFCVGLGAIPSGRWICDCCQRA", "test": "pull-down; Pull-down: 150 mM NaCl (or LiCl), 50 mM Tris pH 8, 0.25% NP-40, 1 mM TCEP, protease inhibitors, 4 C, 2 h; EMSA with lysate in same buffer, RT 15 min; FP in PBS, 25 C", "settings": "protein: recombinant; tags: GST; label: 5' biotin; G4"}, "SMARCB1-WHD": {"target": "SMARCB1-WHD (UniProt Q12824 1-113)", "test": "pull-down; Pull-down: 150 mM NaCl (or LiCl), 50 mM Tris pH 8, 0.25% NP-40, 1 mM TCEP, protease inhibitors, 4 C, 2 h; EMSA with lysate in same buffer, RT 15 min; FP in PBS, 25 C", "settings": "protein: recombinant; label: 5' biotin; G4"}, "TFAP2A": {"target": "TFAP2A (Homo sapiens, UniProt P05549)", "sequence (P05549 whole entry)": "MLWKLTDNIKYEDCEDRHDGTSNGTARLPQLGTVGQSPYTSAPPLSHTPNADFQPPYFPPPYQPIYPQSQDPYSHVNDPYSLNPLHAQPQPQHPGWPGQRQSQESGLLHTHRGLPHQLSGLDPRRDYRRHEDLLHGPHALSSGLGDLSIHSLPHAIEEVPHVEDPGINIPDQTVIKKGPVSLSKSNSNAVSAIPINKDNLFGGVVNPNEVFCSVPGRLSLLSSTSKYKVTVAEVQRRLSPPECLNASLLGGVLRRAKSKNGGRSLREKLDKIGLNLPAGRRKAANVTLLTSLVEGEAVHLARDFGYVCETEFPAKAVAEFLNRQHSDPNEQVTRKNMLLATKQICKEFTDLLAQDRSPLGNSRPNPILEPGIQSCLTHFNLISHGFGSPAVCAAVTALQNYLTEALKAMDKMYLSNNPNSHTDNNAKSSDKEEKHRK", "test": "pulldown; 150 mM NaCl, 50 mM Tris pH 8, 0.25% NP-40, 1 mM TCEP; 4 C, 2 h; 100 ug HeLa nuclear lysate", "settings": "protein: extract; label: 5' biotin (strand 1)"}, "RREB1": {"target": "RREB1 (Homo sapiens, UniProt Q92766)", "sequence (Q92766 whole entry)": "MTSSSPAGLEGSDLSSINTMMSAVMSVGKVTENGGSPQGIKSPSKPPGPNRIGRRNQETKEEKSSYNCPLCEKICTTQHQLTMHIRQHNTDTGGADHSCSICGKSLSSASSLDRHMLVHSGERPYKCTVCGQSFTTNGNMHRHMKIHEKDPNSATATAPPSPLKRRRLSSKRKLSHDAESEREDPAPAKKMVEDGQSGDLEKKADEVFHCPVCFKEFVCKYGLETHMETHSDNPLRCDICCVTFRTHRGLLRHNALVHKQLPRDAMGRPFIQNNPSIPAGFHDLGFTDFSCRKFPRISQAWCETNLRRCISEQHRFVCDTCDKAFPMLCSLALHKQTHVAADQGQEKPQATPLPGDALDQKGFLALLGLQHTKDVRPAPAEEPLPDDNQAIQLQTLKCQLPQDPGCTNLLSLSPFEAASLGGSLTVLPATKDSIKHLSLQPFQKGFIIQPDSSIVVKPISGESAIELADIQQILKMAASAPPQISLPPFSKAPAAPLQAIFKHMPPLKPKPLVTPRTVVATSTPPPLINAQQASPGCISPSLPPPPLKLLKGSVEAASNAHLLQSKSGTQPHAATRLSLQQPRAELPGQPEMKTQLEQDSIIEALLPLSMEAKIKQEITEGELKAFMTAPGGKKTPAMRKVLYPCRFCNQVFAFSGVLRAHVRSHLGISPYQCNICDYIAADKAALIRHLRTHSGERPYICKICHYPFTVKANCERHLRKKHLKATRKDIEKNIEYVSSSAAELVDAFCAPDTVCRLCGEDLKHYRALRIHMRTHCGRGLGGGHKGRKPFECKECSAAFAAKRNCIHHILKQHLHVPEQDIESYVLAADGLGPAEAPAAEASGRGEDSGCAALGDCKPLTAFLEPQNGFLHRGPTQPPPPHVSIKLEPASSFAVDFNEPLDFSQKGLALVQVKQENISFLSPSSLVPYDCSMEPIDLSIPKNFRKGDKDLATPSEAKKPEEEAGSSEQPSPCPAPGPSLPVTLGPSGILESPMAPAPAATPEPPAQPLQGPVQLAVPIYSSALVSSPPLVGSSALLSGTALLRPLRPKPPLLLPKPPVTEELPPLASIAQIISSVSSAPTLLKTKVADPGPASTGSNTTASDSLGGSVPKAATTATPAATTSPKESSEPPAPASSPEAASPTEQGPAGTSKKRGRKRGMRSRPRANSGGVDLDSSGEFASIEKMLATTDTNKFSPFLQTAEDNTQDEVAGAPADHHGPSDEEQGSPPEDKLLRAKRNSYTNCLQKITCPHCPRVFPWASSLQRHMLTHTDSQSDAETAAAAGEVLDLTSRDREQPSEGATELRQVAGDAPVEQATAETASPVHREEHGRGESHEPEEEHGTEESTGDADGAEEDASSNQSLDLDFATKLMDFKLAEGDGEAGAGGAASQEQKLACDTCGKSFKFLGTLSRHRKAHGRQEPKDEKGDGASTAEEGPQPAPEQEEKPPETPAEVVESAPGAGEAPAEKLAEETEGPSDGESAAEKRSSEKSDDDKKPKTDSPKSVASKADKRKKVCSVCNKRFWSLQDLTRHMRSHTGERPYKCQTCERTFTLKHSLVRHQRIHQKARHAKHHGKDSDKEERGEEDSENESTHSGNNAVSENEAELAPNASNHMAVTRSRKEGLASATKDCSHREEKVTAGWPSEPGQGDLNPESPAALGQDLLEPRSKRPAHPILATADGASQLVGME", "test": "pulldown; 150 mM NaCl, 50 mM Tris pH 8, 0.25% NP-40, 1 mM TCEP; 4 C, 2 h; 100 ug HeLa nuclear lysate", "settings": "protein: extract; label: 5' biotin (strand 1)"}, "ELF2": {"target": "ELF2 (Homo sapiens, UniProt Q15723)", "sequence (Q15723 whole entry)": "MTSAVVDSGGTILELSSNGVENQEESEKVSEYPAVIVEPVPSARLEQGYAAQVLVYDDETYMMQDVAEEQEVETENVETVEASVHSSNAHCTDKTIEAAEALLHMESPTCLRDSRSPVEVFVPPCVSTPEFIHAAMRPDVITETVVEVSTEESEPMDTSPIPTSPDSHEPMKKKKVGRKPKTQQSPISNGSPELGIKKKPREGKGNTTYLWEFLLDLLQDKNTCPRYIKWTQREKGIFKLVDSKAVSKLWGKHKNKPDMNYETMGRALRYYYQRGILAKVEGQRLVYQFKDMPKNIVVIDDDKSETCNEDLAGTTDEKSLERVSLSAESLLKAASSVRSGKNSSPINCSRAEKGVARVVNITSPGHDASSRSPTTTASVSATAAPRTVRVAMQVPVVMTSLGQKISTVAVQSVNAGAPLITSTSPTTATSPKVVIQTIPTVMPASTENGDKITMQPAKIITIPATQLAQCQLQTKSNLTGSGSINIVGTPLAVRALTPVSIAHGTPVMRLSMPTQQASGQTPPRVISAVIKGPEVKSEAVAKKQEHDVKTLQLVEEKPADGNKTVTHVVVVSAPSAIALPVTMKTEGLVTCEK", "test": "pulldown; 150 mM NaCl, 50 mM Tris pH 8, 0.25% NP-40, 1 mM TCEP; 4 C, 2 h; 100 ug HeLa nuclear lysate", "settings": "protein: extract; label: 5' biotin (strand 1)"}, "VEZF1": {"target": "T2, VEZF1 (Homo sapiens, UniProt Q14119)", "T2 sequence": "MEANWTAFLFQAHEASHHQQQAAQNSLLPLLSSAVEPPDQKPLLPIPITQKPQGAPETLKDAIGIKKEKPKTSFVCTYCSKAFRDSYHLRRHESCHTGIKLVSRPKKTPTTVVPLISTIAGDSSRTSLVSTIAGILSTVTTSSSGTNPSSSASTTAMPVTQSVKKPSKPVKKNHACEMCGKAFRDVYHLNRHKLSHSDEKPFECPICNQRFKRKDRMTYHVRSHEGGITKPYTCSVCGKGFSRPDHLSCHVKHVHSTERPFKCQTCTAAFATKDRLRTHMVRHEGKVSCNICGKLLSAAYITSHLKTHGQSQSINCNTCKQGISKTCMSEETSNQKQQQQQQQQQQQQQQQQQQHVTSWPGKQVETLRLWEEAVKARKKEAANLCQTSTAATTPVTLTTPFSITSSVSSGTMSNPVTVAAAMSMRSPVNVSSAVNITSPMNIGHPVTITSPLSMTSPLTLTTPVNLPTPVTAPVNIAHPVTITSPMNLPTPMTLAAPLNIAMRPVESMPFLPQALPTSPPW", "test": "pulldown; 150 mM NaCl, 50 mM Tris pH 8, 0.25% NP-40, 1 mM TCEP; 4 C, 2 h; 100 ug HeLa nuclear lysate", "settings": "protein: extract; label: 5' biotin (strand 1)"}, "TGIF1": {"target": "TGIF1 (Homo sapiens, UniProt Q15583)", "test": "pulldown; 150 mM NaCl, 50 mM Tris pH 8, 0.25% NP-40, 1 mM TCEP; 4 C, 2 h; 100 ug HeLa nuclear lysate", "settings": "protein: extract; label: 5' biotin (strand 1)"}, "BBX": {"target": "T3, BBX (Homo sapiens, UniProt Q8WY36)", "T3 sequence": "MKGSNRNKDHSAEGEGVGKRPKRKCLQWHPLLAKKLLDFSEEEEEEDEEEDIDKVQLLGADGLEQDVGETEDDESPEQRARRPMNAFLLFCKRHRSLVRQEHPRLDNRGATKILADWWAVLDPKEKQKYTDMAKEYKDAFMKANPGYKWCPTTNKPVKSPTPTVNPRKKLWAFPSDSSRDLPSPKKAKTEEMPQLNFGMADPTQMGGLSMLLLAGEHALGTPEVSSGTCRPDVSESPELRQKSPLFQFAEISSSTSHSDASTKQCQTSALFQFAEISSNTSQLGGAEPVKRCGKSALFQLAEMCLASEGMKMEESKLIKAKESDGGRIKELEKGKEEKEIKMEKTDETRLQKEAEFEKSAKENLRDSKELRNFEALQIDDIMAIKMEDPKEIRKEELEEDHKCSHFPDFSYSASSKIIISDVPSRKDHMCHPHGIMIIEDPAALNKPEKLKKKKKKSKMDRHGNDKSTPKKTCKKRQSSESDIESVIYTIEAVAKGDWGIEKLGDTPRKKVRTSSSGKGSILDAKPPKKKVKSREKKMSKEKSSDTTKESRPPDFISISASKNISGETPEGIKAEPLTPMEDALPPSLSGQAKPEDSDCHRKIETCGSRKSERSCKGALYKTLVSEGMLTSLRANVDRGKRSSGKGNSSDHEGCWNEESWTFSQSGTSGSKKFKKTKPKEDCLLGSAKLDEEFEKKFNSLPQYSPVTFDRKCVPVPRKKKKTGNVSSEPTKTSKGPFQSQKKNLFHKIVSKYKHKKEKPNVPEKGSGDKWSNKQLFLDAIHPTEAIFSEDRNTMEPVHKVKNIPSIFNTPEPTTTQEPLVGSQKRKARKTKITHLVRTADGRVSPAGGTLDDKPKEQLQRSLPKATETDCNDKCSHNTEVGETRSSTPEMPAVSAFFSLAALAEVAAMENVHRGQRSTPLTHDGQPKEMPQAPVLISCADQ", "test": "pulldown; 150 mM NaCl, 50 mM Tris pH 8, 0.25% NP-40, 1 mM TCEP; 4 C, 2 h; 100 ug HeLa nuclear lysate", "settings": "protein: extract; label: 5' biotin (strand 1)"}, "SIX2": {"target": "T4, SIX2 (Homo sapiens, UniProt Q9NPC8)", "T4 sequence": "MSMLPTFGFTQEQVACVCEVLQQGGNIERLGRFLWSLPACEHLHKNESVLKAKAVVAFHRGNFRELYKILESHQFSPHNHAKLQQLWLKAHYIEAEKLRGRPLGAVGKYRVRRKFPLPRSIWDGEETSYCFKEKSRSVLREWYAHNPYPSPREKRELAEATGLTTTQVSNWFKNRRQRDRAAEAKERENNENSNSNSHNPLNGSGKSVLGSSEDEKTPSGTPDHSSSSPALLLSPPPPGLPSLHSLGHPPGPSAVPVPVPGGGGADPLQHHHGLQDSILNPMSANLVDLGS", "test": "pulldown; 150 mM NaCl, 50 mM Tris pH 8, 0.25% NP-40, 1 mM TCEP; 4 C, 2 h; 100 ug HeLa nuclear lysate", "settings": "protein: extract; label: 5' biotin (strand 1)"}, "KLF16": {"target": "KLF16 (Homo sapiens, UniProt Q9BXK1)", "test": "pulldown; 150 mM NaCl, 50 mM Tris pH 8, 0.25% NP-40, 1 mM TCEP; 4 C, 2 h; 100 ug HeLa nuclear lysate", "settings": "protein: extract; label: 5' biotin (strand 1)"}, "DLX3": {"target": "DLX3 (Homo sapiens, UniProt O60479)", "sequence (O60479 whole entry)": "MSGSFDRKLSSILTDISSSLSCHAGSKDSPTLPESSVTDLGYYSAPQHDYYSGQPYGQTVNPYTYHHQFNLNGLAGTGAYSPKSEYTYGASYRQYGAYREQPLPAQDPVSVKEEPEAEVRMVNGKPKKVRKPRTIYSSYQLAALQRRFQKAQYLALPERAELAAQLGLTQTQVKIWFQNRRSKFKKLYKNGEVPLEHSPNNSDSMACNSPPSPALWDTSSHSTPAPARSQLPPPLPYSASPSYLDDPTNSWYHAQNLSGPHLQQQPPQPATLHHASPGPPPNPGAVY", "test": "pulldown; 150 mM NaCl, 50 mM Tris pH 8, 0.25% NP-40, 1 mM TCEP; 4 C, 2 h; 100 ug HeLa nuclear lysate", "settings": "protein: extract; label: 5' biotin (strand 1)"}, "ZFHX3": {"target": "ZFHX3 (Homo sapiens, UniProt Q15911)", "test": "pulldown; 150 mM NaCl, 50 mM Tris pH 8, 0.25% NP-40, 1 mM TCEP; 4 C, 2 h; 100 ug HeLa nuclear lysate", "settings": "protein: extract; label: 5' biotin (strand 1)"}, "GATA2": {"target": "GATA2 (Homo sapiens, UniProt P23769)", "sequence (P23769 whole entry)": "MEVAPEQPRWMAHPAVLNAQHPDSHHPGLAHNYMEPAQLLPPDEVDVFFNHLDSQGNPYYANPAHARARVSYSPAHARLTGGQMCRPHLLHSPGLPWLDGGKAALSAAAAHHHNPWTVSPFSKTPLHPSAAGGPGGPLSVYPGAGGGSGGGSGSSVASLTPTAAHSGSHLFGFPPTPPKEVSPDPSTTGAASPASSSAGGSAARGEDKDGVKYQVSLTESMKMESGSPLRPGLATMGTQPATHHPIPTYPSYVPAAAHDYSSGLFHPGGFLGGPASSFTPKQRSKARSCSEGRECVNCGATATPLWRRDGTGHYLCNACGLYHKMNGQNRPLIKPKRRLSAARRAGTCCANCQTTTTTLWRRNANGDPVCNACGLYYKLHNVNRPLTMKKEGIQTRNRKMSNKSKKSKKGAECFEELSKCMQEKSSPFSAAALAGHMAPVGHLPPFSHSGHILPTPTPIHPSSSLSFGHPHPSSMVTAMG", "test": "pulldown; 150 mM NaCl, 50 mM Tris pH 8, 0.25% NP-40, 1 mM TCEP; 4 C, 2 h; 100 ug HeLa nuclear lysate", "settings": "protein: extract; label: 5' biotin (strand 1)"}, "SP1": {"target": "SP1 (Homo sapiens, UniProt P08047)", "test": "pulldown; 150 mM NaCl, 50 mM Tris pH 8, 0.25% NP-40, 1 mM TCEP; 4 C, 2 h; 100 ug HeLa nuclear lysate", "settings": "protein: extract; label: 5' biotin (strand 1)"}, "ZNF787": {"target": "ZNF787 (Homo sapiens, UniProt Q6DD87)", "sequence (Q6DD87 whole entry)": "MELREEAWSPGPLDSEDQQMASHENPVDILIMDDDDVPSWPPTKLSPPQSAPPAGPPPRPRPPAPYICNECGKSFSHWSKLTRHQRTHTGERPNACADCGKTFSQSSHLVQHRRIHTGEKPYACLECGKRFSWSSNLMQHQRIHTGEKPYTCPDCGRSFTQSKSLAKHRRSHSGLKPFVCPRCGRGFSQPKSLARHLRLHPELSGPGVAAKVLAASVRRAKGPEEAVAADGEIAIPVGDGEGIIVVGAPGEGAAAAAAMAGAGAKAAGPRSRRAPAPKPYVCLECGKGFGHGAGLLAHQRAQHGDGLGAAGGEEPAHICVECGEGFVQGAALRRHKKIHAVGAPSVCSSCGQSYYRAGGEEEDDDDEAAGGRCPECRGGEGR", "test": "pulldown; 150 mM NaCl, 50 mM Tris pH 8, 0.25% NP-40, 1 mM TCEP; 4 C, 2 h; 100 ug HeLa nuclear lysate", "settings": "protein: extract; label: 5' biotin (strand 1)"}, "ZBTB7A": {"target": "ZBTB7A (Homo sapiens, UniProt O95365)", "sequence (O95365 whole entry)": "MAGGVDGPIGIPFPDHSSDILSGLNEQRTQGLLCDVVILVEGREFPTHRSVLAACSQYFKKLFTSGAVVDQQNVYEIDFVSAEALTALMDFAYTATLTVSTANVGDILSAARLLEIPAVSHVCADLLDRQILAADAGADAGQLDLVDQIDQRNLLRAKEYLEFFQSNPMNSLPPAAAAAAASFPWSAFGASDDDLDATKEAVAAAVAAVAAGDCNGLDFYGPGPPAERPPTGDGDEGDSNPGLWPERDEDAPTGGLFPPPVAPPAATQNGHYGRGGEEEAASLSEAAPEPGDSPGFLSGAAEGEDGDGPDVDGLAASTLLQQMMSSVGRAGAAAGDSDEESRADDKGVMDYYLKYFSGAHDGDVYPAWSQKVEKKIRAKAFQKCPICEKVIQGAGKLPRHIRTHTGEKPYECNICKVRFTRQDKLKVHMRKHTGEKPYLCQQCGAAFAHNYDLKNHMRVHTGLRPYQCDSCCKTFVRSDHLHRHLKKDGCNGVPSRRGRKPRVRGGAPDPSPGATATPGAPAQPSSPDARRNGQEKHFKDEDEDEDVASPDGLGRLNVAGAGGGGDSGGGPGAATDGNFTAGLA", "test": "pulldown; 150 mM NaCl, 50 mM Tris pH 8, 0.25% NP-40, 1 mM TCEP; 4 C, 2 h; 100 ug HeLa nuclear lysate", "settings": "protein: extract; label: 5' biotin (strand 1)"}, "ZBTB7B": {"target": "ZBTB7B (Homo sapiens, UniProt O15156)", "sequence (O15156 whole entry)": "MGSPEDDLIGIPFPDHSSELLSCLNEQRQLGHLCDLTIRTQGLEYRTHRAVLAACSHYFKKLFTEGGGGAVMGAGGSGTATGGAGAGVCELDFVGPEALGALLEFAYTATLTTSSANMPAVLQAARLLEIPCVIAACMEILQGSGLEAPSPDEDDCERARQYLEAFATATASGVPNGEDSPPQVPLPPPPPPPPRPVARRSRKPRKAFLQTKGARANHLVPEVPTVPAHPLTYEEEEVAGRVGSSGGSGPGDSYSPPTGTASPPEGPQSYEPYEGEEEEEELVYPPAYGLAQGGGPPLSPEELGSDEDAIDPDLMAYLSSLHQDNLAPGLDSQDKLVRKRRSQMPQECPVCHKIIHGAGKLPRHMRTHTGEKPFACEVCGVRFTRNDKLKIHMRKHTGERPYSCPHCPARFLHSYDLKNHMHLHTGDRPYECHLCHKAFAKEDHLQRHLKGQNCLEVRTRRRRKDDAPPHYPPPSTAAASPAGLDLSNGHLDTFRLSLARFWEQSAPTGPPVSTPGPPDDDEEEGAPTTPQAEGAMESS", "test": "pulldown; 150 mM NaCl, 50 mM Tris pH 8, 0.25% NP-40, 1 mM TCEP; 4 C, 2 h; 100 ug HeLa nuclear lysate", "settings": "protein: extract; label: 5' biotin (strand 1)"}},
  "data": [
    {"binder": "TGGGGAGGGTGGGGAGGGTGGGGAAGG (structured_DNA)", "note": "[mycG4 (Pu27)]", "values": [
      {"measurement": "binding result", "setting": "PHF10-DPF", "value": "no binding"},
      {"measurement": "binding result", "setting": "SMARCB1-WHD", "value": "binds"}
    ]},
    {"binder": "AP-1 (dsDNA) DNA 1: AGTCGGCTAGCTGACTCAGGATGTCC DNA 2: GGACATCCTGAGTCAGCTAGCCGACT", "values": [
      {"measurement": "apparent K (half saturation)", "setting": "TFAP2A", "value": 363, "unit": "nM"},
      {"measurement": "apparent K (half saturation)", "setting": "RREB1", "value": 317, "unit": "nM"},
      {"measurement": "apparent K (half saturation)", "setting": "ELF2", "value": 205, "unit": "nM"},
      {"measurement": "apparent K (half saturation)", "setting": "VEZF1", "value": 255, "unit": "nM"},
      {"measurement": "apparent K (half saturation)", "setting": "TGIF1", "value": 322, "unit": "nM"},
      {"measurement": "apparent K (half saturation)", "setting": "BBX", "value": 308, "unit": "nM"},
      {"measurement": "apparent K (half saturation)", "setting": "SIX2", "value": 59.9, "unit": "nM"}
    ]},
    {"binder": "NF-Y (dsDNA) DNA 1: ATTGACCAATCAGAGGTAGGATGAT DNA 2: ATCATCCTACCTCTGATTGGTCAAT", "values": [
      {"measurement": "apparent K (half saturation)", "setting": "RREB1", "value": 283, "unit": "nM"},
      {"measurement": "apparent K (half saturation)", "setting": "KLF16", "value": 200, "unit": "nM"},
      {"measurement": "apparent K (half saturation)", "setting": "VEZF1", "value": 249, "unit": "nM"},
      {"measurement": "apparent K (half saturation)", "setting": "DLX3", "value": 52.9, "unit": "nM"},
      {"measurement": "apparent K (half saturation)", "setting": "ZFHX3", "value": 56.9, "unit": "nM"},
      {"measurement": "apparent K (half saturation)", "setting": "GATA2", "value": 126, "unit": "nM"},
      {"measurement": "apparent K (half saturation)", "setting": "SP1", "value": 185, "unit": "nM"},
      {"measurement": "apparent K (half saturation)", "setting": "ZNF787", "value": 394, "unit": "nM"}
    ]},
    {"binder": "E-box (dsDNA) DNA 1: GGAAGCAGACCACGTGGTCTGCTTCC DNA 2: GGAAGCAGACCACGTGGTCTGCTTCC", "values": [
      {"measurement": "apparent K (half saturation)", "setting": "ZBTB7A", "value": 404, "unit": "nM"},
      {"measurement": "apparent K (half saturation)", "setting": "ZBTB7B", "value": 405, "unit": "nM"}
    ]}
  ]
}
